Source: the supplement of paper PMC10126150
± gives the standard deviation of the averaged measurements.

tested on: ATP; assay: switch fluorescence ratio, 500 uM ATP over buffer (Cy3 cluster intensity, sum of 5 cycles each) (fold (ratio)); higher = stronger signal-on switching upon ATP binding; sequences stand for … in TCGTCGGCAGCGTCAGATGTGTATAAGAGACAGTTTTTTTTTTTTTTTTTTTTTTTTT…TC; details: aptamer strand: ATP DNA aptamer (quencher-CACCTGGGGGAGTATTGCGGAGGAAGG + anchor), 100 nM annealed; ATP concentration: 500 uM
Method in brief: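 For every switch-domain sequence, the fluorescence ratio is the mean of per-cluster values, each being summed target-cycle Cy3 intensity over summed buffer-cycle Cy3 intensity. Clusters outside 100-1000 RFU were excluded. On a modified Illumina MiSeq flow-cell, the Cy3-labelled switching-strand clusters were annealed to 100 nM quencher-labelled ATP aptamer, imaged in selection buffer and then after 15 min with 500 uM ATP at 22 °C. Five such cycles were run, with NaOH stripping and re-annealing between them.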
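Also: ATP exposure 15 min at 22 °C before imaging.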

Row | Sequence | switch fluorescence ratio
1 | AGAGCATATG | 1.02 ± 0.017
2 | AGAGCATGGG | 0.971 ± 0.016
3 | AGAGCTAAGT | 0.982 ± 0.027
4 | AGAGCTGGGT | 1.02 ± 0.02
5 | AGAGCTTGAT | 1 ± 0.036
6 | AGAGGAAGGG | 0.993 ± 0.01
7 | AGAGGAAGGT | 1.03 ± 0.046
8 | AGAGGATGTG | 1.01 ± 0.033
9 | AGAGGCATCG | 0.9941 ± 0.005
10 | AGAGGCCAGG | 1.0973 ± 0.00031
11 | AGAGGCTGTG | 1.01 ± 0.038
12 | AGAGGGAAGG | 0.959 ± 0.014
13 | AGAGGGATAC | 1.07 ± 0.035
14 | AGAGGGCGGG | 0.98 ± 0.031
15 | AGAGGGCTAT | 0.989 ± 0.038
16 | AGAGGGGGCG | 1.01 ± 0.039
17 | AGAGGGGTTA | 1.01 ± 0.056
18 | AGAGGGTGCG | 0.934 ± 0.041
19 | AGAGGGTGGG | 0.994 ± 0.04
20 | AGAGGGTTGC | 0.978 ± 0.029
21 | AGAGGTAGGA | 0.979 ± 0.016
22 | AGAGGTAGTA | 1.017 ± 0.0066
23 | AGAGGTATAC | 0.969 ± 0.011
24 | AGAGGTCCGA | 0.991 ± 0.037
25 | AGAGGTTATG | 0.986 ± 0.041

Row | Sequence | switch fluorescence ratio
26 | AGAGGTTTGG | 0.9944 ± 0.0051
27 | AGAGTAAAGT | 0.98 ± 0.015
28 | AGAGTAGGGA | 0.989 ± 0.02
29 | AGAGTATTAA | 0.9824 ± 0.004
30 | AGAGTCACGG | 0.982 ± 0.024
31 | AGAGTCAGCA | 1.02 ± 0.021
32 | AGAGTCGTCA | 0.965 ± 0.0068
33 | AGAGTCGTGC | 0.997 ± 0.051
34 | AGAGTGCCTG | 1.04 ± 0.058
35 | AGAGTGTATG | 1.006 ± 0.0086
36 | AGAGTGTTGG | 0.985 ± 0.034
37 | AGAGTTAGGT | 1.021 ± 0.0047
38 | AGAGTTATTG | 0.998 ± 0.018
39 | AGAGTTCCGG | 1 ± 0.029
40 | AGAGTTTCTT | 0.981 ± 0.038
41 | AGATAAAAGG | 0.998 ± 0.015
42 | AGATAAAGGT | 0.995 ± 0.057
43 | AGATAAATCA | 0.978 ± 0.033
44 | AGATAATTCT | 1.02 ± 0.013
45 | AGATAATTTG | 0.99459 ± 0.00061
46 | AGATAATTTT | 0.988 ± 0.014
47 | AGATACTTGA | 1.01 ± 0.014
48 | AGATAGAGCG | 1.01 ± 0.024
49 | AGATAGGGAG | 0.9786 ± 0.0031
50 | AGATAGTATT | 0.986 ± 0.02

Row | Sequence | switch fluorescence ratio
51 | AGATATACGG | 1.02 ± 0.034
52 | AGATATTTAT | 0.987 ± 0.014
53 | AGATCCTCTA | 1 ± 0.011
54 | AGATCGAGTT | 0.99 ± 0.041
55 | AGATCTGGGG | 1.04 ± 0.036
56 | AGATCTTCTT | 0.987 ± 0.015
57 | AGATGATAGG | 1.0282 ± 0.00044
58 | AGATGGAGGC | 1.0705 ± 0.00017
59 | AGATGGCTAG | 0.999 ± 0.018
60 | AGATGGGGCA | 0.9774 ± 0.0024
61 | AGATGGGGG | 0.948 ± 0.066
62 | AGATGGTTTC | 0.993 ± 0.042
63 | AGATGTATTT | 0.997 ± 0.032
64 | AGATGTGAGC | 1.03 ± 0.059
65 | AGATGTGTAG | 1.04 ± 0.012
66 | AGATGTTGTT | 1.01 ± 0.023
67 | AGATGTTTCC | 1.04 ± 0.055
68 | AGATTAAAGA | 1.006 ± 0.009
69 | AGATTACCTG | 1.02 ± 0.027
70 | AGATTACCTT | 1.06 ± 0.017
71 | AGATTAGAT | 0.993 ± 0.015
72 | AGATTAGGGA | 0.975 ± 0.017
73 | AGATTAGGGT | 1.01 ± 0.017
74 | AGATTATTTT | 1.01 ± 0.032
75 | AGATTCAATA | 0.991 ± 0.016

Row | Sequence | switch fluorescence ratio
76 | AGATTCATGC | 1.01 ± 0.019
77 | AGATTCATTT | 0.984 ± 0.021
78 | AGATTCGGGA | 0.967 ± 0.038
79 | AGATTGAATG | 0.97975 ± 0.00032
80 | AGATTGCCGT | 1.01 ± 0.068
81 | AGATTGCTTG | 0.977 ± 0.03
82 | AGATTGGGGG | 0.969 ± 0.034
83 | AGATTGGGGT | 1.01 ± 0.017
84 | AGATTTAGTA | 0.982 ± 0.06
85 | AGATTTCACT | 1.01 ± 0.016
86 | AGATTTGGCT | 0.9952 ± 0.0065
87 | AGATTTTGCA | 0.989 ± 0.027
88 | AGATTTTTGG | 1.003 ± 0.0026
89 | AGCAAAAGAA | 1.12 ± 0.15
90 | AGCAACCCCT | 1.81 ± 0.022
91 | AGCAAGAGGC | 1.26 ± 0.34
92 | AGCAAGGATT | 1.1 ± 0.1
93 | AGCAAGTATC | 1.24 ± 0.033
94 | AGCAAGTTGT | 1.03 ± 0.011
95 | AGCAATGGGG | 1.58 ± 0.051
96 | AGCACGAGGG | 0.9816 ± 0.0093
97 | AGCACGGGGG | 1.19 ± 0.28
98 | AGCACTGGGA | 1.04 ± 0.029
99 | AGCACTTACA | 1.35 ± 0.085
100 | AGCAGAAAGT | 1 ± 0.04

Row | Sequence | switch fluorescence ratio
101 | AGCAGGGGGT | 1.05 ± 0.044
102 | AGCAGGTTGT | 1.05 ± 0.015
103 | AGCAGTGCGG | 1.03 ± 0.024
104 | AGCAGTTCCG | 1.02 ± 0.044
105 | AGCATAAGCA | 1.15 ± 0.27
106 | AGCATAATAT | 1.05 ± 0.012
107 | AGCATGAACT | 1.07 ± 0.044
108 | AGCATGGTAG | 1.02 ± 0.031
109 | AGCATTGGGT | 1.002 ± 0.0015
110 | AGCATTGGTT | 1.02 ± 0.035
111 | AGCATTGTCA | 1.01 ± 0.013
112 | AGCCACTGGA | 1.06 ± 0.059
113 | AGCCCACTCG | 1.04 ± 0.05
114 | AGCCCATACG | 1.2 ± 0.039
115 | AGCCCGGGCA | 0.956 ± 0.015
116 | AGCCGAATTC | 1.03 ± 0.06
117 | AGCCGATATT | 0.967 ± 0.015
118 | AGCCGCTTCA | 0.9803 ± 0.0053
119 | AGCCGGCGGT | 1.02 ± 0.019
120 | AGCCGTTGAG | 0.9916 ± 0.0061
121 | AGCCTGTTAG | 0.9892 ± 0.0087
122 | AGCCTTTATC | 1.04 ± 0.011
123 | AGCGAATGGT | 0.951 ± 0.012
124 | AGCGACGGTT | 0.982 ± 0.016
125 | AGCGCCAGGG | 1.13 ± 0.035

Row | Sequence | switch fluorescence ratio
126 | AGCGCCGAGT | 0.973 ± 0.045
127 | AGCGCGTCGC | 0.955 ± 0.016
128 | AGCGGATTCG | 0.969 ± 0.053
129 | AGCGGCCTAA | 0.987 ± 0.014
130 | AGCGGGAACG | 1.005 ± 0.0013
131 | AGCGGGAGAT | 1.01 ± 0.061
132 | AGCGGGAGGG | 1.02 ± 0.015
133 | AGCGGGATGC | 1.03 ± 0.028
134 | AGCGGGGAGG | 1.03 ± 0.035
135 | AGCGGGGGAG | 1.01 ± 0.012
136 | AGCGTCTTGC | 1.01 ± 0.059
137 | AGCGTTGGTG | 1.03 ± 0.031
138 | AGCGTTTAGA | 0.989 ± 0.011
139 | AGCGTTTATA | 1.018 ± 0.0013
140 | AGCGTTTTTT | 0.998 ± 0.026
141 | AGCTAATTTT | 1.02 ± 0.013
142 | AGCTACCTTA | 1.09 ± 0.05
143 | AGCTAGGTAA | 1.01 ± 0.029
144 | AGCTCAATTA | 1.02 ± 0.03
145 | AGCTGAAG | 0.967 ± 0.013
146 | AGCTGACTAT | 1.06 ± 0.11
147 | AGCTGAGTAA | 1.036 ± 0.0085
148 | AGCTGATGTG | 1.008 ± 0.0051
149 | AGCTGCACAT | 1.048 ± 0.0022
150 | AGCTGGCCCT | 1 ± 0.013

Row | Sequence | switch fluorescence ratio
151 | AGCTGGCTGT | 0.9735 ± 0.0037
152 | AGCTGGGATT | 0.989 ± 0.054
153 | AGCTGTACTG | 1.09 ± 0.011
154 | AGCTGTCGCT | 1.01 ± 0.076
155 | AGCTGTTGCA | 0.971 ± 0.024
156 | AGCTTAGGGA | 0.99 ± 0.036
157 | AGCTTATCTA | 1 ± 0.011
158 | AGCTTATGTT | 0.985 ± 0.017
159 | AGCTTCCATG | 1.09 ± 0.023
160 | AGCTTCGGTC | 0.953 ± 0.0098
161 | AGCTTCGTTT | 1 ± 0.031
162 | AGCTTCTTAA | 0.992 ± 0.068
163 | AGCTTGAAG | 0.999 ± 0.019
164 | AGCTTGATGT | 1.02 ± 0.053
165 | AGCTTGGGTC | 0.994 ± 0.019
166 | AGCTTGTCGG | 1.01 ± 0.025
167 | AGCTTGTTCG | 0.987 ± 0.023
168 | AGCTTTGGGG | 1.02 ± 0.018
169 | AGGAAAGGCG | 1.09 ± 0.015
170 | AGGAAAGTGT | 1.01 ± 0.017
171 | AGGAAATTTG | 0.994 ± 0.031
172 | AGGAACGCGG | 1.04 ± 0.018
173 | AGGAACTGCA | 1.07 ± 0.029
174 | AGGAAGCGGT | 0.958 ± 0.051
175 | AGGAAGGGGA | 0.9683 ± 0.0089

Row | Sequence | switch fluorescence ratio
176 | AGGAATACTT | 1.07 ± 0.043
177 | AGGAATCAAG | 0.9968 ± 0.0071
178 | AGGAATGCAA | 1.09 ± 0.017
179 | AGGAATTGAT | 1.13 ± 0.27
180 | AGGAATTTTA | 0.9554 ± 0.0062
181 | AGGACAGGTG | 1.33 ± 0.055
182 | AGGACGGTAG | 0.992 ± 0.058
183 | AGGACGTTGG | 0.963 ± 0.034
184 | AGGACTGTCT | 0.986 ± 0.018
185 | AGGAGAACGG | 0.938 ± 0.011
186 | AGGAGAAGGG | 0.985 ± 0.018
187 | AGGAGAGGGT | 0.967 ± 0.013
188 | AGGAGAGTCA | 0.9825 ± 0.0036
189 | AGGAGGAAGT | 1.01 ± 0.026
190 | AGGAGGCATG | 0.986 ± 0.043
191 | AGGAGGCGGG | 0.99 ± 0.035
192 | AGGAGGGCAG | 1.013 ± 0.0059
193 | AGGAGGGCGA | 0.9582 ± 0.002
194 | AGGAGGTGCT | 0.965 ± 0.067
195 | AGGAGTGGGG | 1 ± 0.022
196 | AGGAGTTCTT | 0.989 ± 0.032
197 | AGGAGTTTGG | 0.981 ± 0.015
198 | AGGATAAATT | 0.983 ± 0.025
199 | AGGATACATT | 1.02 ± 0.02
200 | AGGATATGGA | 0.997 ± 0.022
